{"source": "the RNAGym collection of RNA variant scans (doi:10.1073/pnas.2313332121)", "parents": {"B1": {"name": "TPR t1 (parent)", "chain": "GACCAAUCUGCCCUCAGAGCUCGAGAACAUCUUCGGAUGCAGAGGAGGCAGGCUUCGGUGGCGCGAUAGCGCCAACGUCCUCAACCUCCAAUGCAUCCCACCACAUGAUGAUGCCUGAAGAGCCUUGGUUUUUUG"}}}
{"variants_of": "B1", "experiment": "polymerase ribozyme fitness, log enrichment relative to wild type (log ratio); higher = more active; in vitro selection for triplet polymerase activity", "procedure,_shortened": "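Only genotypes with ≥10 input reads and ≥1 read per output were kept after Illumina sequencing of input and output libraries. These libraries were PCR-built, transcribed mutants of each subunit of a heterodimeric triplet polymerase ribozyme, each put through one triplicate in vitro selection round with frozen incubation at −7 °C, gel excision of extended constructs, streptavidin-bead capture and RT-PCR. Fitness is a logarithmic ratio of genotype enrichment to wild-type enrichment, from inverse-variance-weighted replicate averages, with the logarithm in base 2.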"}
{"variant": "G23C A29C G48C U106G C114U", "polymerase ribozyme fitness (log ratio)": -8.24}
{"variant": "C22U A41G C72U C124U", "polymerase ribozyme fitness (log ratio)": -3.44}
{"variant": "A24G C82G", "polymerase ribozyme fitness (log ratio)": -1.98}
{"variant": "A24U G61C", "polymerase ribozyme fitness (log ratio)": -7.27}
{"variant": "C22U C72G C82A", "polymerase ribozyme fitness (log ratio)": -5}
{"variant": "C22U G60C C104A", "polymerase ribozyme fitness (log ratio)": -5.43}
{"variant": "A26U G39A C49G G61A C88U C124G", "polymerase ribozyme fitness (log ratio)": -3.77}
{"variant": "A26G A27U A74G C115U C124U", "polymerase ribozyme fitness (log ratio)": -5.7}
{"variant": "C22G U78C", "polymerase ribozyme fitness (log ratio)": -3.01}
{"variant": "C22G U78G", "polymerase ribozyme fitness (log ratio)": -4.47}
{"variant": "A26U A83U", "polymerase ribozyme fitness (log ratio)": -2.58}
{"variant": "A24G A41G C88U U92A U112A U131C", "polymerase ribozyme fitness (log ratio)": -3.58}
{"variant": "A26U A119G", "polymerase ribozyme fitness (log ratio)": -2.12}
{"variant": "C22G G69C G77U C101G C115U", "polymerase ribozyme fitness (log ratio)": -5.91}
{"variant": "C22U G44C", "polymerase ribozyme fitness (log ratio)": -4.2}
{"variant": "A26U A46C A90G U106A G127C", "polymerase ribozyme fitness (log ratio)": -2.32}
{"variant": "A27C C94U", "polymerase ribozyme fitness (log ratio)": -3.16}
{"variant": "G25C C53U", "polymerase ribozyme fitness (log ratio)": -5.22}
{"variant": "G25C C53G", "polymerase ribozyme fitness (log ratio)": -6.8}
{"variant": "A27G U96G C99G U129A", "polymerase ribozyme fitness (log ratio)": -6.24}
{"variant": "G23C G45C G51U G71C G120C", "polymerase ribozyme fitness (log ratio)": -6.31}
{"variant": "A24G G36C C49A G63U", "polymerase ribozyme fitness (log ratio)": -4.77}
{"variant": "A26G A84G G120A", "polymerase ribozyme fitness (log ratio)": -2.95}
{"variant": "A24U C49G C64A C104U C123G", "polymerase ribozyme fitness (log ratio)": -6.64}
{"variant": "A26U C62A A83U G117A", "polymerase ribozyme fitness (log ratio)": -6.44}
{"variant": "G25A G93A", "polymerase ribozyme fitness (log ratio)": -6.22}
{"variant": "A24G G63U G113U", "polymerase ribozyme fitness (log ratio)": -6.59}
{"variant": "A27G C62U C94A U106C", "polymerase ribozyme fitness (log ratio)": -4.15}
{"variant": "G25A", "polymerase ribozyme fitness (log ratio)": -4.68}
{"variant": "G25U", "polymerase ribozyme fitness (log ratio)": -5.58}
{"variant": "G25C", "polymerase ribozyme fitness (log ratio)": -5.94}
{"variant": "A27G C49U A91C", "polymerase ribozyme fitness (log ratio)": -4.72}
{"variant": "C22U A27C A41U A50U G60C C82U", "polymerase ribozyme fitness (log ratio)": -6.98}
{"variant": "A27G G61C C88G G128A", "polymerase ribozyme fitness (log ratio)": -7.26}
{"variant": "C22U A26G G52C A105C C124U", "polymerase ribozyme fitness (log ratio)": -4.45}
{"variant": "A26G G48A C49G A121U", "polymerase ribozyme fitness (log ratio)": -0.318}
{"variant": "A24G A119U", "polymerase ribozyme fitness (log ratio)": -2.54}
{"variant": "G23A C82G", "polymerase ribozyme fitness (log ratio)": -5.43}
{"variant": "C22U C94A", "polymerase ribozyme fitness (log ratio)": -4.02}
{"variant": "A27G G60U A105U", "polymerase ribozyme fitness (log ratio)": -5.71}
{"variant": "A26U C72A U78C A91C A118G A121U U126C", "polymerase ribozyme fitness (log ratio)": -5.75}
{"variant": "A26C A29G U112G", "polymerase ribozyme fitness (log ratio)": -7.05}
{"variant": "A24G G58C A118U", "polymerase ribozyme fitness (log ratio)": -2.06}
{"variant": "A26U G61A", "polymerase ribozyme fitness (log ratio)": -3.03}
{"variant": "G25A A66U C70G G110C", "polymerase ribozyme fitness (log ratio)": -6.93}
{"variant": "G25C G61A", "polymerase ribozyme fitness (log ratio)": -4.35}
{"variant": "A26U G44A G48U C82U G122A", "polymerase ribozyme fitness (log ratio)": -6.34}
{"variant": "A24G G48A C64U", "polymerase ribozyme fitness (log ratio)": -2.39}
{"variant": "A24U A43C G60C A84U G110C U129A", "polymerase ribozyme fitness (log ratio)": -6.86}
{"variant": "A27C G42C G71A G120C U126A U130G", "polymerase ribozyme fitness (log ratio)": -6.83}
{"variant": "C22G G77C C88G C123U", "polymerase ribozyme fitness (log ratio)": -3.61}
{"variant": "A27G G45A", "polymerase ribozyme fitness (log ratio)": -2.35}
{"variant": "G25C G63U C99A C115A", "polymerase ribozyme fitness (log ratio)": -6.39}
{"variant": "G25U C56G U81G A121G C124U", "polymerase ribozyme fitness (log ratio)": -5.96}
{"variant": "A27C U87A A91G", "polymerase ribozyme fitness (log ratio)": -4.73}
{"variant": "G23U C72G", "polymerase ribozyme fitness (log ratio)": -6.36}
{"variant": "G25C A29G U33C G60A C98U G113C", "polymerase ribozyme fitness (log ratio)": -7.69}
{"variant": "A27G G93C C104U", "polymerase ribozyme fitness (log ratio)": -3.11}
{"variant": "C22G G60U C85A", "polymerase ribozyme fitness (log ratio)": -4.53}
{"variant": "G23A C79A G110C U125G", "polymerase ribozyme fitness (log ratio)": -6.79}
{"variant": "A24G G71C", "polymerase ribozyme fitness (log ratio)": -2.48}
{"variant": "C22G G51A G61U U112G", "polymerase ribozyme fitness (log ratio)": -5.05}
{"variant": "A27C U54A G71A C115A U129A", "polymerase ribozyme fitness (log ratio)": -5.86}
{"variant": "A24G A46U C72G G93C G120U C124U", "polymerase ribozyme fitness (log ratio)": -5.77}
{"variant": "A27G U32G C62U U78G G120C", "polymerase ribozyme fitness (log ratio)": -6.42}
{"variant": "A27G A46G C89G", "polymerase ribozyme fitness (log ratio)": -4.52}
{"variant": "A27C C124G", "polymerase ribozyme fitness (log ratio)": -0.608}
{"variant": "C22U A27C U87G", "polymerase ribozyme fitness (log ratio)": -5.65}
{"variant": "G25C C31G C34U A43C U112C", "polymerase ribozyme fitness (log ratio)": -6.28}
{"variant": "A27C G47U G63A C86U", "polymerase ribozyme fitness (log ratio)": -6.59}
{"variant": "C22G G63C", "polymerase ribozyme fitness (log ratio)": -4.13}
{"variant": "A26U G135A", "polymerase ribozyme fitness (log ratio)": -3.67}
{"variant": "A26G C53A C56U G93C U96G", "polymerase ribozyme fitness (log ratio)": -4.22}
{"variant": "A26G A43U G69U U112A", "polymerase ribozyme fitness (log ratio)": -0.179}
{"variant": "A24G U96G C102A", "polymerase ribozyme fitness (log ratio)": -5.25}
{"variant": "A27G G48C G71C G127C", "polymerase ribozyme fitness (log ratio)": -5.17}
{"variant": "C22G G47A G120U G127U", "polymerase ribozyme fitness (log ratio)": -3.88}
{"variant": "A26G G60U C97U", "polymerase ribozyme fitness (log ratio)": -2.92}
{"variant": "G23A G39U C53A G69U G71A C115G G117A", "polymerase ribozyme fitness (log ratio)": -4.86}
{"variant": "A24C G61U", "polymerase ribozyme fitness (log ratio)": -6.19}
{"variant": "A27C U78G U125A", "polymerase ribozyme fitness (log ratio)": -4.05}
{"variant": "A26G C62U C80G G110C", "polymerase ribozyme fitness (log ratio)": -7.8}
{"variant": "A26C C34A C56A C94G A111U", "polymerase ribozyme fitness (log ratio)": -7}
